In US20170248602A1 (ALLERGAN, published 2017):
Changes are numbered by the printed parent chain.

B1: α-SNAP-25 mouse monoclonal antibody 2E2A6 (antibody, V domains shown)
VH: QVQLQQSDAELVKPGASVKISCRASGYTFTDHSIHWVKQQPGQGLEWIGYIFPGNGNIEYNDKFKGKATLTADKSSGTAYMQLNSLTSEDSAVYFCKRMGYWGQGTSVTVSS
VL: DVLMTQTPLTLSVTIGQPASISCKSSQSLLYTNGKTYLTWLFQRPGQSPKRLIYLVSELDSGVPDRFSGSGSGTDFTLEITRVEAEDLGVYYCLQSAHFPFTFGSGTKLEIKR
B2: α-SNAP-25 mouse monoclonal antibody 3C1A5 (antibody, V domains shown)
VH: QVKLQESGAELVKPGASVKISCKASGYTFTDHSIHWVKQKPGQGLEWIGYLFPGNGNFEYNEKFKGKATLTADKSSSTVYMYLNSLTSEDSAVYFCKRMGYWGQGTTVTVSS
VL: B1 VL with L3V, Y31N, F42I, K50Q, E58K, E79K, T81S, A97S
B3: α-SNAP-25 mouse monoclonal antibody 1D3B8 (antibody, V domains shown)
VH: QVKLQESGAELVKPGASVKISCKASGYIFTDHALHWVRQKPEQGLEWIGYIFPGNGNIEYNEKFKGKATLTADKSSSTAYMQLNSLTSGDSAMYFCKKMDYWGQGTTVTVSS
VL: DVLMTQTPLSLPVSLGDQASISCRSSQSIVHSNGNTYLEWYLQKPGQSPKLLIYKVSNRFSGVPDRFSGSGSGTDFTLKISRVEAEDLGVYYCFQGSHVPPTFGAGTKLELKR

The binders below were run against T1, SNAP-25206 uncleaved substrate in PC12 cells (rat (PC12 cells), UniProt P60881 1-206) (assay: cell-based assay: Western blot of PC12 lysates, ascites 1:100).
T1 construct: also called uncleaved SNAP-25
T1 sequence (P60881 whole entry): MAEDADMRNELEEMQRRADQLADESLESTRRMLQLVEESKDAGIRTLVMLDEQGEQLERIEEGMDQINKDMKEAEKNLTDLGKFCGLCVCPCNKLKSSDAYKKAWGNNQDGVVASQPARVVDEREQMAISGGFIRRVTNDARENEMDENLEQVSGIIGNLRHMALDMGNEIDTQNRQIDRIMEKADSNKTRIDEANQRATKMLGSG

Q: Does B1 bind?
A: no binding

Q: Does B2 bind?
A: no binding

Q: Does B3 bind?
A: no binding
